One may read the Kd as the constant that tells how readily two partners part at equilibrium.

One substance from paper PMC9521928 can be followed below.

This experiment addresses CPXV14-His (His-tagged recombinant cowpox virus Brighton Red CPXV14) (cowpox virus (Brighton Red strain)). In words: BLI; […] (10 μg/mL, 2 min), […]; PBS pH 7.4, 0.005% Tween-20; 25°C; steady-state fit, 1:1 binding model; […].

Turning to “soluble recombinant murine FcγRIIB (mCD32B) ectodomain (from UniProt P08101 30-210) (receptor)”, the Kd is 3.6 nM.
